# Experimental data from publication PMC10357448.
# Test: In vitro trypsin digestion, SDS-PAGE densitometry
# Details: glycan changed form; control: WT (HEK293), one N-glycan
protein,measurement,value
Interleukin-4 (IL-4): WT (P. pastoris) (protein) parent chain: MGLTSQLLPPLFFLLACAGNFVHGHKCDITLQEIIKTLNSLTEQKTLCTELTVTDIFAASKNTTEKETFCRAATVLRQFYSHHEKDTRCLGATAQQFHRHKQLIRFLKRLDRNLWGLAGLNSCPVKEANQSTLENFLERLKTIMREKYSKCSS,"degradation_or_half_life, half_life","decreases, 2.6 ± 0.2 vs 4.9 ± 0.7"
